Source: paper PMC314469, “Protein Interaction Networks by Proteome Peptide Scanning” (PLoS Biology, 2004)

Key:
Assay in all cases: SPOT array
[1] = molecular target: T1, Boi1 SH3 (BOI1_YEAST), P38041
T1 chain: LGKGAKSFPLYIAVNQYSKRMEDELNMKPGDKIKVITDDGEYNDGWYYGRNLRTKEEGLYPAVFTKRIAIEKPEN

[2] = molecular target: Sho1 SH3 (SHO1_YEAST), P40073
[3] = molecular target: T2, Myo5 SH3 (MYO5_YEAST), Q04439
T2 chain: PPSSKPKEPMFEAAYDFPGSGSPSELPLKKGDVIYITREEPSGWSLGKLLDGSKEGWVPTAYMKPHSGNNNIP

[4] = molecular target: T3, Boi2 SH3 (BOI2_YEAST), P39969
T3 chain: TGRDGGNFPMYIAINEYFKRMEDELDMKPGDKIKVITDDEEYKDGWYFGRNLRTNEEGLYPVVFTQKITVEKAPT

[5] = molecular target: T4, Yhr016c SH3 (YSC84_YEAST), P32793
T4 chain: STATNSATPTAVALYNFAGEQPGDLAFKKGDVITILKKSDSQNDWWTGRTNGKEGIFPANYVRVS

[6] = molecular target: T5, Rvs167 SH3 (RV167_YEAST), P39743
T5 chain: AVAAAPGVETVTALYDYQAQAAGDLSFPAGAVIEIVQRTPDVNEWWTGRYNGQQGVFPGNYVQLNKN

[7] = molecular target: T6, Yfr024 SH3 (LSB3_YEAST), P43603
T6 chain: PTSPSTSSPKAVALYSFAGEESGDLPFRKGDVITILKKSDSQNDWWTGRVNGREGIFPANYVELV

Sho1 SH3 (SHO1_YEAST), P40073, sequence (P40073 295-366): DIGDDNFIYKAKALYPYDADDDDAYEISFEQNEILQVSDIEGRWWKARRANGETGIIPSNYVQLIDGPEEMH

Row | Binder | normalised SPOT signal, Boehringer light units (BLU); mean over the file's lines of this peptide [1] | normalised SPOT signal, Boehringer light units (BLU); mean over the file's lines of this peptide [2] | normalised SPOT signal, Boehringer light units (BLU); mean over the file's lines of this peptide [3] | normalised SPOT signal, Boehringer light units (BLU); mean over the file's lines of this peptide [4] | normalised SPOT signal, Boehringer light units (BLU); mean over the file's lines of this peptide [5] | normalised SPOT signal, Boehringer light units (BLU); mean over the file's lines of this peptide [6] | normalised SPOT signal, Boehringer light units (BLU); mean over the file's lines of this peptide [7]
1 | DKIFKTDPNEPAND [YDL174C 572-585] | 66.5 | 16.7 | 99.1 | 26.3 | 14.1 | 47.5 | 0
2 | DLDWRKIPFLPKEI [YLR427W 487-500] | 2880 | 1070 | 250 | 26.3 | 154 | 177 | 790
3 | DFRGRAYPLSPHFN [YFL036W 825-838] | 5020 | 975 | 785 | 1390 | 257 | 1830 | 1600
4 | DLQKKYEPSPPATH [YCR069W 34-47] | 114 | 32.6 | 225 | 2.8 | 37.1 | 40.7 | 0
5 | DPSDKSLPQQPFHK [YJR006W 304-317] | 0 | 397 | 192 | 25.2 | 36.7 | 55.1 | 39.2
6 | DILKKESPDVPLFD [YBR155W 341-354] | 170 | 26.9 | 146 | 17.3 | 18.3 | 0 | 0
7 | DLSLRYAPNLPRVI [YLL048C 1385-1398] | 352 | 35 | 250 | 18.8 | 19.3 | 41.9 | 156
8 | DIPRRYIPITPADL [YMR126C 79-92] | 14100 | 33.7 | 33 | 52.6 | 116 | 956 | 748
9 | DLKKKYAPDPPITH [YNR028W 35-48] | 164 | 4.2 | 186 | 21 | 14.6 | 27.7 | 16.5
10 | DIGSKKLPTGPSKK [YER164W 1276-1289] | 3940 | 608 | 220 | 34.4 | 12.3 | 38.1 | 50
11 | DGKLKHIPRRPYEI [YEL007W 26-39] | 1850 | 48.8 | 307 | 3.5 | 48.7 | 68.6 | 315
12 | DKKKKKYPRKPKKN [YDR485C 332-345] | 223 | 114 | 532 | 0 | 15.7 | 66.5 | 245
13 | DIPLKQVPENPMPT [YIL155C 374-387] | 110 | 15 | 62.9 | 12.3 | 4.6 | 26 | 13.5
14 | DNELKDEPEPPNLI [YGR093W 206-219] | 17.2 | 32.3 | 179 | 26 | 16.3 | 25.3 | 0
15 | DIKTRSVPKIPSIE [YBR163W 320-333] | 344 | 31.3 | 102 | 23.2 | 36000 | 52200 | 48300
16 | DKFIKLIPMRPVLI [YDR479C 286-299] | 117 | 112 | 253 | 0.3 | 95.2 | 39 | 1380
